Read-outs that look alike come from different tables or passages of the source.

Test [1] concerns the target T1, human OX40 expressed on cells (293T-OX40, Jurkat-OX40) (human, UniProt P43489 29-277).
T1 sequence (looked up): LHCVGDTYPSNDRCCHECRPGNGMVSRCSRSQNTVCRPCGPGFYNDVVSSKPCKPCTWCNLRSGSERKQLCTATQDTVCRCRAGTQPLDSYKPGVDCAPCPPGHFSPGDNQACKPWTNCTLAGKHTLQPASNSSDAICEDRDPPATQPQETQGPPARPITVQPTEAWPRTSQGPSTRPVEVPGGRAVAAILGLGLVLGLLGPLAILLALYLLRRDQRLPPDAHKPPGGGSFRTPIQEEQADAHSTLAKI
In words: cell-based or functional assay.

Test [2] has as its target T1, human OX40 expressed on cells …. In words: FACS on 293T-OX40 cells. Here is the method:
(§1) (3) FACS Screening for Antibodies Binding to OX40-ECD. 50 μL of the hybridoma supernatant tested positive in the ELISA tests was pipetted and mixed with 50 μL of 293T-OX40 cells (1×10⁵ cells/well), and the mixture was added to a 96-well plate with a U-shaped bottom and incubated for 1 hour. After the mixture was centrifuged and washed twice with FACS buffer (PBS+3% FCS), PE-labeled goat anti-mouse secondary antibody (Biolegend, Cat. No.: 405307) diluted at 1:400 was added, the mixture was incubated for 30 minutes, and washed with FACS buffer, and then PE signal of 293T-OX40 cells was detected using a BD C6 flow cytometer.
(§2) The activity of the purified antibody sample to bind OX40 and block the binding of OX40 to OX40L was tested via ELISA and FACS. Specific methods are described in steps (2), (3) and (4) in Example 1. 6 monoclonal OX40 hybridoma antibodies 1G2, 3G4, 9G7, 177G5, 118A10 and 119H2 were tested. Test results are shown in Table 1 to Table 3 and FIGS. 1 to 3.

The next test has as its target T2, OX40-ECD-hFc (human, UniProt P43489 29-214).
T2 construct: extracellular domain; Coated on the ELISA plate; also called OX40-hFc protein; not shown: human Fc (hFc)
T2 sequence (looked up): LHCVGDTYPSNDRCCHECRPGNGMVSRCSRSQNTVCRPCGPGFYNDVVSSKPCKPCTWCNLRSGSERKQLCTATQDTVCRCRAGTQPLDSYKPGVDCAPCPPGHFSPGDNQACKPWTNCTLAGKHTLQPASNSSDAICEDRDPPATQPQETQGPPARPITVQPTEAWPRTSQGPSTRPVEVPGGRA
In words: ELISA, OX40-ECD-hFc coated on plate. The procedure:
(2) ELISA Screening for Antibodies Binding to OX40-ECD. 96-well ELISA plate (Corning, Cat. No.: 9018) was inoculated with OX40-ECD-hFc, left at 4° C. overnight, and washed 3 times with wash buffer (PBS+0.05% Tween 20), then blocking buffer (PBS+1% BSA (Sigma, Cat. No.: V90093)) was added, and the 96-well ELISA plate was incubated for 1 hour and washed 3 times; hybridoma supernatant was added, the 96-well ELISA plate was incubated for 1 hour and washed 3 times; and 100 μL of goat anti-mouse IgG secondary antibody (Thermo, Cat. No.: 31432) diluted at 1:10000 was added to each well, and the 96-well ELISA plate was incubated at room temperature for 1 hour and washed 3 times. 100 µL of TMB (Biosubstrate Technologies, Cat. No.: ES-002) was added to each well and left for 3 minutes for color development, then a stop solution (2N H₂SO₄) was added at a dose of 100 μL/well to terminate the reaction, and the OD450 signal of each sample was measured with a Tecan Spark microplate reader.
as §2
(ELISA stands for enzyme-linked immunosorbent assay.)

Test [3] deals with T1, human OX40 expressed on cells …. In words: cell-based or functional assay. This is another data set of the same source.
For test [4] the target is unchanged. In words: cell-based or functional assay. This is another data set of the same source.
For test [5] the target is unchanged. In words: FACS on 293T-OX40 cells. The procedure:
as §1
Purified humanized antibody samples were tested for their binding to OX40 using FACS and for their ability to block the OX40L/OX40 signaling pathway using a reporter gene assay. The specific methods are referenced from Example 1. The results are shown in Table 6, Table 7, FIG. 7 and FIG. 8. The effects of the humanized antibodies on the function of primary T cells were tested, including an MLR response test of the inhibitory effect of the OX40 humanized antibody on the proliferation of CD4+ T cells, and a test of the inhibitory effect of the OX40 humanized antibody on the proliferation of CD8+ T cells induced by CEF.
This is another data set of the same source.

B1: murine OX40 hybridoma antibody 9G7 (antibody, V domains shown)
VH: EVKLVESGGGLVQPGGSLKLSCAASGFTFSDYYMYWVRQTPEKRLEWVAYISNGDISTYYPDTVKGRFTISRDNAKNTLYLQMSRLKSEDTAMYYCARDDGYSAWFAYWGQGTLVTVSA
VL: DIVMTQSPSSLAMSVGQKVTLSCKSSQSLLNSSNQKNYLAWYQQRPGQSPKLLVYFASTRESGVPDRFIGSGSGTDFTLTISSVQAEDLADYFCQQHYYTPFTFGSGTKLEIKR
notes: Purified murine monoclonal hybridoma antibody
B1: the “IC50 of reporter gene assay (NF-kB-luciferase, Jurkat-OX40 cells + OX40L)” value (shortened to “IC50 of reporter gene assay”) in test [1] was around 36.1 ng/mL. For the same molecule, the figures for the concentration for a half-maximal effect (EC50) (in test [2]; in the test with OX40-ECD-hFc) were 0.0369 µg/mL and 0.0198 µg/mL, respectively.

B2: humanized anti-OX40 antibody hu177G5-DE (antibody, V domains shown)
VH: QVQLVESGGGLVKPGGSLRLSCAASGFTFSDFYMYWIRQAPGKGLEWVATISDGGSYTYYPDIVKGRFTISRDNAKNSLNLQMNSLRAEDTAVYYCTTKNGNHIGFAYWGQGTTVTVSS
VL: DIQMTQSPSSLSASVGDRVTITCRASENIYSNLAWYQQKPGKAPKLLVYAATNLADGVPSRFSGSGSGTDYTLTISSLQPEDFATYYCQHFWGIPWTFGGGTKVEIK
notes: Constructed as human IgG1 with constant region Ser239, Ala330 and Ile332 mutated to Asp, Leu and Glu; also called humanized antibody 177G5; combination D'
As for B2, in test [3], the “IC50 of reporter gene assay” value turned out to be 309 ng/mL. Also, the “EC50 of ADCC activity (LDH release, Jurkat-OX40 target cells + PBMC)” value (shortened to “EC50 of ADCC activity”) in test [4] came to 2.36 ng/mL. For the same molecule, a half-maximal response in test [5] (EC50) required 0.096 µg/mL.

B3: humanized anti-OX40 antibody hu3G4-DE (antibody, V domains shown)
VH: QVQLVQSGAEVKKPGASVKVSCKASGYRFTSYVLHWVRQAPGQRLEWIGYVNPFNDNTRYNEKFKARATLTSDKSASTAYMELSSLRSEDTAVYYCSRGLYDYSYVMDYWGQGTLVTVSS
VL: DIQMTQSPSSLSASVGDRVTITCQASQDIRNYLNWYQQKPGKAPKLLIYHTSKLHSGVPSRFSGSGSGTDFTFTISSLQPEDIATYYCQQSNTLPYTFGQGTKLEIK
notes: Constructed as human IgG1 with constant region Ser239, Ala330 and Ile332 mutated to Asp, Leu and Glu; also called humanized antibody 3G4; combination B'
Consider B3, for which, in test [3], the “IC50 of reporter gene assay” value was 18.1 ng/mL. Besides, the “EC50 of ADCC activity” value in test [4] turned out to be 1.52 ng/mL. Further, the EC50 (commonly the concentration that produces a half-maximal response) in test [5] amounted to 0.0713 µg/mL.

B4: murine OX40 hybridoma antibody 177G5 (antibody, V domains shown)
VH: EVQLVESGGGLVKPGGSLKLSCAASGFTFSDFYMYWVRQTPEKRLEWVATISDGGSYTYYPDIVKGRFTISRDNAKNNLNLQMSSLKSDDTAMYYCTTKNGNHIGFAYWGQGTLVTVSA
VL: DIQMTQSPASLSVSVGETVTITCRASENIYSNLAWYQQKQGKSPQLLVYAATNLADGVPSRFSGSGSGTQYSLKINSLQSEDFGSYYCQHFWGIPWTFGGGTKLEIKR
notes: as for B1
Regarding B4, the “IC50 of reporter gene assay” value in test [1] is 253 ng/mL. The EC50 stood at 0.0499 µg/mL in test [2] and 0.0215 µg/mL with OX40-ECD-hFc.

B5: humanized anti-OX40 antibody hu9G7-DE (antibody, V domains shown)
VH: EVQLVESGGGLVQPGGSLRLSCAASGFTFSDYYMYWVRQAPGKGLEWVAYISNGDISTYYPDTVKGRFTISRDNAKNSLYLQMNSLRAEDTAVYYCARDDGYSAWFAYWGQGTTVTVSS
VL: DIVMTQSPDSLAVSLGERATINCKSSQSLLNSSNQKNYLAWYQQKPGQPPKLLVYFASTRESGVPDRFSGSGSGTDFTLTISSLQAEDVAVYYCQQHYYTPFTFGQGTKLEIK
notes: Constructed as human IgG1 with constant region Ser239, Ala330 and Ile332 mutated to Asp, Leu and Glu; also called humanized antibody 9G7; combination C'
As for B5, the “IC50 of reporter gene assay” value in test [3] stood at 57.5 ng/mL. Also, the “EC50 of ADCC activity” value in test [4] amounted to 1.43 ng/mL. A half-maximal effect in test [5] (EC50) was put at 0.0623 µg/mL.

B6: murine OX40 hybridoma antibody 3G4 (antibody, V domains shown)
VH: EVQLQQSGPELVKPGTSVKMSCKASGYRFTSYVLHWVRRKPGQGLEWIGYVNPFNDNTRYNEKFKAKATLTSDKSSSTAYMDLVSLTSEDSAVYYCSRGLYDYSYVMDYWGQGTSVTVSS
VL: DIQMTQTTSSLSASLGDGVTITCQASQDIRNYLNWYQQKPDGTIKLLIYHTSKLHSGVPSRFSGGGSGTDFSLTISNLDQEDIATYFCQQSQTLPYTFGGGTKLEIKR
notes: as for B1
Regarding B6, the “IC50 of reporter gene assay” value in test [1] worked out at 36.1 ng/mL. Further, the concentration for a half-maximal effect (EC50) came to 0.0537 µg/mL in test [2] and 0.0163 µg/mL in the test with OX40-ECD-hFc.

B7: murine OX40 hybridoma antibody 1G2 (antibody, V domains shown)
VH: EVQLQQSGPDLVKPGASVKMSCKASGYRFTSYVMHWVKQRPGQGLEWIGYINPYNDNTRYNEKFKGKATLTSDKSSSTAYMELSSLTSEDSAVYYCAAYYGDYVYLDYWGQGTTLTVSS
VL: DIQMTQTTSSLSASLGDRVTISCRASQDINNYLNWYQQKPDGTVKLLIYYTSRLHSGVPSRFSGSGSGTDYSLIISNLEQEDIATYFCQQGNTLPWTFGGGTKLEIKR
notes: as for B1
With B7, the “IC50 of reporter gene assay” value in test [1] worked out at 117 ng/mL. The EC50 in test [2] came out at 0.0805 µg/mL; in the test with OX40-ECD-hFc it was 0.0157 µg/mL.

B8: murine OX40 hybridoma antibody 118A10 (antibody, V domains shown)
VH: EVKLDETGGGLVQPGRPMKLSCVASGFTFSDYWLNWVRQSPEKGLEWVAQIRNKPYHYETFYSESVKGRFTISRDDSKSSVYLQMNDLRGEDTGIYYCTGYFDYWGQGTTLTVSS
VL: DIVLTQSPASLTISLGQRATISCRASQSVSTSTYSYIHWYQQKPGQPPRLLIKYASNLESGVPARFSGSGSGTDFTLNIHPVEEEDTATYYCQHSWGIPPTFGGGTKLEIKR
notes: as for B1
Turning to B8, the “IC50 of reporter gene assay” value in test [1] was found to be 198 ng/mL. For the same molecule, the concentration giving a half-maximal response (EC50) in test [2] was 0.0735 µg/mL; with OX40-ECD-hFc, 0.0249 µg/mL.

B9: murine OX40 hybridoma antibody 119H2 (antibody, V domains shown)
VH: EVKLDATGGGLVQPGRPMKLSCVASGFTFSDYWMNWVRQSPEKGLEWVAQIRNKPYNYETFYSDSVKGRFTISRDDSKSSVYLQMNNLRAEDMGIYYCTGYFDYWGQGTTLTVSS
VL: DIVLTQSPASLAVSLGQRATISCRASQSVSTSSYSYMHWYQQKPGQPPKLLIKYASNLESGVPARFSGSGSGTDFTLNIHPVEEEDTATYYCQHSWGIPPTFGGGTKLEIKR
notes: as for B1
Turning to B9, the “IC50 of reporter gene assay” value in test [1] worked out at 179 ng/mL. Moreover, the concentration for a half-maximal effect (EC50) was found to be 0.0413 µg/mL in test [2] and 0.023 µg/mL with OX40-ECD-hFc.

These data come from patent US20250051468A1 (INNOLAKE BIOPHARMA HANGZHOU, published 2025).
